Measurements from patent publication US20050170434.

Target: p38 MAPK, Q16539
Sequence (Q16539 2-360): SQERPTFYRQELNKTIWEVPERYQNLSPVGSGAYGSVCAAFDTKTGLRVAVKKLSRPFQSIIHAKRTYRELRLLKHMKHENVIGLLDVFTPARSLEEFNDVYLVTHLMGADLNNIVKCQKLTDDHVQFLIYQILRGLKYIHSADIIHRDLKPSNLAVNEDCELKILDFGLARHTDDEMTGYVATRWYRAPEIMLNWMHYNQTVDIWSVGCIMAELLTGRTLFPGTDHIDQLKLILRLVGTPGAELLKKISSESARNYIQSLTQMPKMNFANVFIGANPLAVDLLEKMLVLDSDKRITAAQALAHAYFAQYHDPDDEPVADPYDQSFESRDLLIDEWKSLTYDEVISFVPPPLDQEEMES

B1: MKK3b (WT) (protein)
chain: MESPASSQPASMPQSKGKSKRKKDLRISCMSKPPAPNPTPPRNLDSRTFITIGDRNFEVEADDLVTISELGRGAYGVVEKVRHAQSGTIMAVKRIRATVNSQEQKRLLMDLDINMRTVDCFYTVTFYGALFREGDVWICMELMDTSLDKFYRKVLDKNMTIPEDILGEIAVSIVRALEHLHSKLSVIHRDVKPSNVLINKEGHVKMCDFGISGYLVDSVAKTMDAGCKPYMAPERINPELNQKGYNVKSDVWSLGITMIEMAILRFPYESWGTPFQQLKQVVEEPSPQLPADRFSPEFVDFTAQCLRKNPAERMSYLELMEHPFFTLHKTKKTDIAAFVKEILGEDS
p38 phosphorylation (western blot using anti-phospho-p38 antibodies): in MKK3b (WT)-infected cells, the basal level of phosphorylated p38 protein dramatically increased compared with the basal level in cells infected with vector (TICD8)
